Positions count from the first letter of the chain named. Names may count otherwise.
B1: Lip-VIN3VEL (residues 500-603), wild type (domain or fragment)
chain: GKQGGNKRFKSRTVSLNEKPEINNAANGVGDKDLGHIVKTIRCLEEEGHIDKSFRERFLTWYSLRATHREVRVVKIFVETFMEDLSSLGQQLVDTFSESILSKR
B2: Lip-VIN3VEL (residues 500-603) I575T (domain or fragment)
chain: B1 chain with I76T

Target: the molecule itself
Experiment: SEC-MALS

Protein | binding result
B1 | binds
B2 | binds
